Here are results for four molecules from patent US9938503B2, “Differentiation of human iPS cells to human alveolar type II via definitive endoderm” (YALE UNIVERSITY, priority 2012, dated 2018).

For assay [1], the system named is iPSC-derived DE cells. Briefly: Extracellular matrix protein effects on DE cell adhesion and differentiation. It is filed as cell-based, human. The following applies: ECM-coated plates, media with NOGGIN/SB-431542. How it is done: (§1) DE generated by exposure to activin A were trypsinized, reseeded at a ratio of 1:1-2 on human ECM protein-coated plates and differentiated to anterior foregut endoderm with IMDM+5% FBS, 2 mM L-glutamine, 1 mM nonessential amino acids, 1% antibiotic-antimycotic supplemented with 200 ng/ml NOGGIN and […] SB-431542 for 2 days (Longmire T A, et al. 2012. Cell Stem Cell 10(4):398-411, Green M D, et al. 2011. Nat Biotechnol 29(3):267-272).
Total RNA was extracted using the RNeasy Mini Kit from Qiagen, following the manufacturer's instructions. First-strand complementary DNA (cDNA) was synthesized with random hexamers as primers, using SuperScript First-Strand Synthesis System according to manufacturer's protocol (Invitrogen). Each sample was run in triplicate with iQ™ SYBR Green Supermix (Bio-Rad). PCR conditions included an initial denaturation step of 4 min at 95° C., followed by 40 cycles of PCR consisting of 15s at 95° C., 30 s at 60° C., and 30 s at 72° C. Average threshold cycle (Ct) values from the triplicate PCR reactions for a gene of interest (GOI) were normalized against average GAPDH Ct values from the same cDNA sample. Fold change of GOI transcript levels between sample A and sample B equals 2^−ΔΔCt, where ΔCt=Ct(GOI)−Ct(GAPDH), and ΔΔCt=ΔCt(A)−ΔCt(B). […]

Assay [2] deals with iPSC-AETII cells. Put plainly: Differentiation of iPSC-derived AETII cells to AETI cells with IWR-1. Format: cell-based, human. How it is done: Differentiated cells at day 22 were then maintained in DMEM medium with 10% FBS, 2 mM L-glutamine, 1 mM nonessential amino acids, 1% antibiotic-antimycotic and […] IWR-1 for 7 days.
(§2) For flow cytometry, cells were dissociated into single-cell suspensions by incubation with 0.25% trypsin for 2 min, and fixed (Fixation/Permeabilization kit, BD Biosciences). After blocking for 30 min on ice, the cells were incubated with primary antibody in blocking solution for 30 min on ice. The cells were resuspended in 350 μl of Perm/Wash buffer after incubation with conjugated secondaries for 30 min on ice, washed twice, and analyzed by flow cytometry. See Table 1 for antibody information.
Total RNA was extracted using the RNeasy Mini Kit from Qiagen, following the manufacturer's instructions. First-strand complementary DNA (cDNA) was synthesized with random hexamers as primers, using SuperScript First-Strand Synthesis System according to manufacturer's protocol (Invitrogen). Each sample was run in triplicate with iQ™ SYBR Green Supermix (Bio-Rad). PCR conditions included an initial denaturation step of 4 min at 95° C., followed by 40 cycles of PCR consisting of 15s at 95° C., 30 s at 60° C., and 30 s at 72° C. Average threshold cycle (Ct) values from the triplicate PCR reactions for a gene of interest (GOI) were normalized against average GAPDH Ct values from the same cDNA sample. Fold change of GOI transcript levels between sample A and sample B equals 2^−ΔΔCt, where ΔCt=Ct(GOI)−Ct(GAPDH), and ΔΔCt=ΔCt(A)−ΔCt(B).

Assay [3] relates to iPSC-derived definitive endoderm cells. Put plainly: Differentiation of definitive endoderm to anterior foregut endoderm with NOGGIN/SB-431542, flow cytometry. Format: cell-based, human. How it is done: as §1, §2
For assay [4], the system named is human iPS cells (C1 and C2 clones). Put plainly: Differentiation of iPS cells to definitive endoderm with activin A, flow cytometry. It is filed as cell-based. The following applies: for endodermal cells based on dual expression of SOX17 and FOXA2: day 6. As to the method: Human iPSCs were differentiated to alveolar epithelium in a directed differentiation protocol via definitive endoderm (DE) and anterior foregut endoderm (AFE). iPS cells were differentiated towards definitive endoderm under conditions described previously (Duan Y, et al. 2010. Stem Cells 28(4):674-686, Kubo A, et al. 2004. Development. 131(7):1651-1662). Briefly, h-iPSC were cultured in RPMI 1640 medium supplemented with 100 ng/ml activin A, 2 mM L-glutamine and 1% antibiotic-antimycotic for 48 hours; 1xB27 supplement, 0.5 mM sodium butyrate and 0.1% FBS were added into the same medium and the cells were cultured for another 4 days, with daily medium changes (D'Amour K A, et al. 2005. Nat Biotechnol 23(12):1534-1541).
as §2
(In general: A flow cytometer gives signals particle by particle.)

[5] abbreviates: 100 mM IWR-1 for 7 days from day 22, flow cytometry, C1 clone.
[6] abbreviates: continuous activin A from day 6 to day 8 without NOGGIN/SB-431542.
Setting [7] is: C1 clone, day 6, 100 ng/ml activin A, flow cytometry.
Where [8] appears, read: C2 clone, day 6, 100 ng/ml activin A, flow cytometry.

With laminin, the DE cell attachment result in assay [1] is “attach well”.
In the case of Fibronectin, the DE cell attachment result in assay [1] was “attach well”.
Turning to `O=C(Nc1cccc2cccnc12)c1ccc(N2C(=O)[C@@H]3[C@H](C2=O)[C@@H]2C=C[C@H]3C2)cc1` [IWR-1], in assay [2] (setting [5]), the “cells expressing T1α” value is on record as at most 88%, the “cells positive for aquaporin-5 (AQ5)” value is “up to 92%” and the “cells positive for caveolin-1” value is reported as at most 98%. Also, in assay [2] (AETII exposed to Wnt/β-catenin inhibitor), the “AETI cells positive for the type I markers T1α and caveolin-1” value is recorded as “more than 90%”. The “AETI markers AQ5, T1α and caveolin-1 by immunostaining” value in assay [2] (IWR-1 treated versus untreated AETII) is given as “significant increase”. The “AETII cell marker SPC” value in assay [2] (after IWR-1, flow cytometry) is recorded as “decreased significantly”. The “expression of type I cell markers by quantitative RT-PCR” value in assay [2] (iPSC-AETII cells exposed to IWR-1 versus freshly isolated human primary alveolar type I cells) is “comparable to expression levels of freshly isolated human primary alveolar type I cells”.

B1: activin A: soluble cytokine activating the nodal receptor, used at 100 ng/ml to induce definitive endoderm (protein, UniProt P08476 311-426, looked up)
Inhibin beta A chain: GLECDGKVNICCKKQFFVSFKDIGWNDWIIAPSGYHANYCEGECPSHIAGTSGSSLSFHSTVINHYRMRGHSPFANLKSCCVPTKLRPMSMLYYDDGQNIIKKDIQNMIVEECGCS
modifications: Inhibin beta A chain
B1: the “cells positive for NKX2.1” value in assay [3] (activin A induced cells without NOGGIN/SB-431542, day 13) was below 1%. In assay [3] (setting [6]), the “FOXA2+/SOX2+ cells” value was “rare” and the “NKX2.1+ cells” value is reported as “few”. Moreover, in assay [4] (C1 clone), the “endodermal cells based on dual expression of SOX17 and FOXA2” value was “more than 85%”. Also, in assay [4] (setting [7]), the “percentage of cells expressing CXCR4” value is 92.71±4.0% and the “percentage of cells expressing FOXA2” value is 87.66±1.2%. Moreover, in assay [4] (C2 clone), the “endodermal cells based on dual expression of SOX17 and FOXA2” value is above 89%. In addition, in assay [4] (setting [8]), the “percentage of cells expressing CXCR4” value was 87.23±2.0%, the “percentage of cells expressing FOXA2” value is 83.54±1.8% and the “percentage of cells expressing SOX17” value was determined as 91.42±3.0%.
